Results on one substance are retold here after article PMC4733404.

The assay deals with BDBV GP[change] (recombinant GP form that lacks the highly glycosylated mucin-like domains) (Bundibugyo virus (BDBV)). The assay can be described thus: negative-stain single-particle electron microscopy.

For orientation: stoichiometry N means the number of molecules, sites or subunits per partner or assembly. Regarding “BDBV GP[change] (recombinant GP form that lacks the highly glycosylated mucin-like domains) (domain or fragment)”, the stoichiometry N was 3.
